In the DeepSol protein solubility set:

Assay: soluble on expression in E. coli; label from the status in PepcDB or PDB records
With “MGQLIDGVWHDTWYDTKSTGGKFQRSASAFRNWLTADGAPGPTGTGGFIAEKDRYHLYVSLACPWAHRTLIMRKLKGLEPFISVSVVNPLMLENGWTFDDSFPGATGDTLYQNEFLYQLYLHADPHYSGRVTVPVLWDKKNHTIVSNESAEIIRMFNTAFDALGAKAGDYYPPALQTKIDELNGWIYDTVNNGVYKAGFATSQEAYDEAVAKVFESLARLEQILGQHRYLTGNQLTEADIRLWTTLVRFDPVYVTHFKCDKHRISDYLNLYGFLRDIYQMPGIAETVNFDHIRNHYFRSHKTINPTGIISIGPWQDLDEPHGRDVRFGLEHHHHHH” the “soluble on expression in E. coli” value was “soluble”.
In the case of “MGREALGKCPVCNNETTITRITCEKCNTTIEGRFDLCKFCRLTPEQKLFVDVFIKCRGNIKEVEKELGVSYPTVKNKLEDVANALGHKSEEAPVEETNRKEILDKLYEGEISVDEALELLKG”, the “soluble on expression in E. coli” value is reported as “not soluble”.
With “MGRGRKHTDAAAEQRELAIKANIVDEPFSVSAIDRSIRKAEWVKTETDQILSGRCPETDGTWLGISTRGRVAFLVEAGTINRDRFNGAESRTLEFLESNESPEDFAKSSAADYIRNKNTAAFHLIVADIASNSMLYISKPRFSDYGIVYTEPVGPGVHTLSSAGLDSDVGYRDLRMRHSFCEMINRERLPPIRDIAEIMYDPVKAYESVLLSSIFFVDMKIGYEHYGTRITTALVVKRTKEVLFFERYREIFNDDWDDHDFAFTII” the “soluble on expression in E. coli” value was “not soluble”.
For “MGRMIDGDWRTEADMNEHSDDGAFERDTTSFRHWVGDDVPPAAGRYHLYVSYACPWAHRTLLVRALLGLEDAISVSVVDPVRYDQGWTFDPEKPGCTPDHVFGGTHLRDVYTEADPEYTGRVTVPVLYDTDADTIVNNESEEIMRMLDVAFDDHAARDVDLYPEGYRDEVDRLIEDIYDPINNGVYRAGFADSQRAYDNAVDDLFEALAHYDDVLAEQRYLAGDVLTEADVAMFTTLYRFDEVYHTHFKCNRKRISDYDNLWPYLRELCQLPGVADTLYMEHVKQHYYRSHGHLNPKRLVPTGPNPAFFAPHDRDQLEHHHHHH”, the “soluble on expression in E. coli” value was “not soluble”.
With “MGRMSEKLGQDIKQSIFKVPPLIQKSDIDPEHCRVSAQLDDNVDDNIPLRVMLLLMDEVFDLKDRNQWLRRNIKNLLQQLIKATYGDTINRKIVDHVDNMTSPEQVSDYVKRFRDSYWPNGILAETPPRRDKNLRMRTRVAAKTTLLGIMPDELKHIIGADTTRKGILRVFEMFQHQPLNRRLVYVFLEGFLETLFPQYKFPELFEKLHSRSPRVLKYSHKLRSLQKR” the “soluble on expression in E. coli” value was “not soluble”.
In the case of “MGRQIPPDPVFGDVLVAKLINRVMWDGKKTIAQKIVYGAFDIIREKTKKDPLEVFRQAVENVKPVLEVRPRRVGGATYQVPIEVQEPRRTSLALRWIVEAARAKKGRPMKEKLAEEIIAAYNNTGTAIKKKEDTHRMAEANRAFAHYRW”, the “soluble on expression in E. coli” value is reported as “soluble”.
With “MGRVFKKKGGAKREAEEEKQEELVMRKKLRKEEEPEPVEDVEEDEDVSDEDDEDIDDEEEDEDEQNIMDFDFEAYPPSEDDRDGIVNMLTQTFLRTDIDLKAMSEGIIAKAPHGVVLTQAYDDEETEEDYMAYGLCTTVPLNDNKDDAPKFIKDLFTYVLNRAKKGAPTEIYKKIEEIQVSGDGKSALFVNERLLNFPTIVVPQIFGSIREDLSGFETKYKTIIYIQKLRIVETDGSEAKVGASSNGSSGVAGKKKGKMGKAEKKRAAAAALANAEIEFDNPEDRVLFEIKEGKEIHFDYPVHMDVEPGSKFHSTEKDGKKWNPFRRLVIMDDKRFDAFLKKGSDGIII” the “soluble on expression in E. coli” value was “not soluble”.
In the case of “MGSDKIHHHHHHAAENLPIQNELFSEYFKKLNPTNYNTKMNRELYIFFKQMFNIDIVKDNIDNANFPTFEEVLGLLDLAEQRKEAFRNFGLENLNNRSDSIRFLRQYLILLMAEAIHNTPRTDNKYHKLLVENLLENDLLLDTTFISANYDIHIDNTVTGLRDKNDLPIMLDYGVEFTNFKEELNWRKPKEPLIKLYKIHGSLNWLYCPICNSVTLTPHEGGVMKLIENSSETKCLECGELTEPIIVPPTYFKNMSNIFLSNVWNETEKTLRDTDLLIFCGYSFPEADMHIKYMLKRVQTNRKKPPLKIMVFNNHSQKQRITLKKEEGRYKRFLGEDVIFTDNSFQDFSVNPLRFIKNI”, the “soluble on expression in E. coli” value is reported as “not soluble”.
For “MGSDKIHHHHHHAATRLKRRKFPTINEEFYYNQLENGMTVFLIPKESFKETLAVMSSRFGSIDTNFTVNGKKKSYLAGIAHLLEHQLFEMNKQKDAAYEFTKLGAESNAYTTFDKTIYYFSTADNIKKNLDLLQEFTSQINFTDMSIEKEKKIITQEFNMYQDDSDDYLYQVILSKLYPQTSLAEDITGNRDSIDKLTKNNLEENFHYFYQPENLTLLVAGDFDVKRVYKDIVTTQRQLPDRPKFEIKRSPLKLLPITPTSSMQMDISISKLAVGFRFNFIKKKRKSLIKERLLLKLFFLLLFGWTSEHYQQWYEDRKIDDSFELKIEVSTSYQFVVILLDTKEPIAMSNKIGQTIKKFKTDTNLSASHLQTVKKELYGDFIRSLDSLEALSSQFIDNLWGEETYFDFPTVLQNIEIKDVLEFGEKITKEMQLTDFTLFPK”, the “soluble on expression in E. coli” value was “not soluble”.
For “MGSDKIHHHHHHAATSNKKNTIKLISTNNNIKIPVYDRQGKQINGFTVESGANVTVIGKPIIVQQKYRKDVFEGIKINGKTYASLGDGGYIPINATGVITSKGMKITRDTAVYNKNGKKLSTYRGHTATLKKDSIVKYGGATTYTIPVSYFNIGNGRYVRASYVQEYNGQTVLTLNYNTFVYNKKGKRINYDGQRKLMNGGVVTTNSKIREAKSSDQNYFYSSANYTDKNKLAFTTTKIKGQDYLSIGKGEYIKIANVKTANGMILFTKGPITITLPSDTTIYSSNFKETKKQIAAGKKVILDKTEIDNSLSDPQLYFRIKGTNELIYWGDLGEYPGVDHTAVYDPNYYSIYSFPLRQFME”, the “soluble on expression in E. coli” value was “not soluble”.
With “MGSDKIHHHHHHACEQNEDWVVNEPMQSFEENPEYAPLNTIPDWVSEKVTPKEYELWRTMSSRYEINYSFLKKDISEKRKKEIYDCINNICERIEKGQINKYEGFLNIADEDGTTLSDSQYFGRIATRSPEGGAEYKTNGCTLYTHSLGPYIKAAVTYKKSDDDVTITSSSVYTGSPYLGNDPSFSGASSVSYDKDKKLIAASCSGTLSFKDGSRKVEVTVQKTGFMIP” the “soluble on expression in E. coli” value was “not soluble”.
For “MGSDKIHHHHHHACKNKTGGPATASSELTDDALMDTVQRRTFLYFWEGAEPNSGLAPERYHVDGVYPQNDANVVTSGGSGFGIMAILAGIDRGYVTREEGLARMERIVSFLEKADRFHGAYPHWWYGDTGKVKPFGQKDNGGDLVETAFLMQGLLAVHQYYINGNEKEKALAARIDQIWKDVDWNWYRNGDQNVLYWHWSPTYGWEMDFPIHGYNECMIMYILAAASPTHGVPAAVYHDGWAQNGAIVSPHKVEGIELHLRYQGTEAGPLFWAQYSFLGLDPVGLKDEYCPSYFHEMRNLTLVNRAYCIRNPKHYKGFGPDCWGLTASYSVDGYAAHSPNEQDDKGVISPTAALSSIVYTPEYSMQVMRHLYNMGDTVFGPFGFYDAFSETDNWYPQRYLAIDQGPIAVMIENYRTGLLWKLFMSHPDVQAGLTKLGFNTNKQDVRQK”, the “soluble on expression in E. coli” value was “not soluble”.
For “MGSDKIHHHHHHADDSYLIDGGKANPYYNGNMMQYLESRPDYFKDLVEVIRLSGMEDVFEDEQITFFAPTDWSIRGSFNYLNRIWYRMGHDSIKSFSQIKPEVWREMLSMYIVKDKYLLKDIPQIDTTAIAAYPGQAFLSYGQQPMNMGVVYYDANNVKYAGARQIIYSYVYDFTIGDMKNAYVATSDIQPTNGVVHVLRLTDHAFGFEPYLFATKAINATIETEPDN”, the “soluble on expression in E. coli” value was “not soluble”.
With “MGSDKIHHHHHHAFLTLKPVKTPFTMYSSVLGDFVITQLDENKQLHRYDTKGNTYTQQQVDSLLPSLYVRQLTADERFPDTICGKAVSPKDIQLTNFTFKSVPSAINAPQTGLYFLMESMSKRVDLKMPEDAFRFTDKGIEFIRMETNCIDEAKSKLFTDMLVQKGFAFPACYASGNPTTRKDYDEGYLVLDANHKLFHLKCTKGRPYVKAIQLPEGVLPEYVFITEFRSRRTLGYMVDSKHHFYIINSDGSLVKSALPGFDPAKDELTIFGNMFDWTVKLSTDKDDYYYALDATDYSLIKEHAYKDIRRSVPGLSFTSPDDKFVKPRF” the “soluble on expression in E. coli” value was “not soluble”.
In the case of “MGSDKIHHHHHHAGFIFLPKENETASTTVEEVKWLTYDQAVALSKKNPKPIFIDVYTDWCGWCKTMDKNTFSNHKVAAYLNKRFYSVKLNPEKKDTVHYKGVAMTNGALAGKIFHATSYPTTVYLEGDETLLQPIPGYQAPNDLYRIIHYIGENHYKTTTWDDFSKSFNESAE”, the “soluble on expression in E. coli” value is reported as “not soluble”.
